Numbering of substitutions follows the chain as printed. In names and notes the source's numbering stands.
Columns and labels:
[1] = target: the molecule itself; assay: cryo-EM structure; 2.5 μM clamp loader and 2.2 μM sliding clamp, 1 mM ADP·BeFx, cross-linked with 1 mM BS3; 25 mM HEPES-NaOH pH 8.0, 200 mM NaCl, 4 mM MgCl2, 1 mM TCEP; Semi-Open and Fully-Open states
[2] = target: the molecule itself; assay: reconstitution and co-elution on anion exchange (HiTrap Q); purified γ (WT or K141A), δ and δ′ (WT or K130A) combined 2.5:1:1, dialysed into Buffer Q-A (50 mM Tris pH 7.5, 50 mM NaCl, 10% glycerol, 2 mM DTT) overnight at 4 °C, eluted from a HiTrap Q column with a NaCl gradient; fractions with the intact complex pooled

B1: γ subunit of the E. coli clamp loader (residues 1-373) (domain or fragment, UniProt P06710 1-373, looked up)
chain: MSYQVLARKWRPQTFADVVGQEHVLTALANGLSLGRIHHAYLFSGTRGVGKTSIARLLAKGLNCETGITATPCGVCDNCREIEQGRFVDLIEIDAASRTKVEDTRDLLDNVQYAPARGRFKVYLIDEVHMLSRHSFNALLKTLEEPPEHVKFLLATTDPQKLPVTILSRCLQFHLKALDVEQIRHQLEHILNEEHIAHEPRALQLLARAAEGSLRDALSLTDQAIASGDGQVSTQAVSAMLGTLDDDQALSLVEAMVEANGERVMALINEAAARGIEWEALLVEMLGLLHRIAMVQLSPAALGNDMAAIELRMRELARTIPPTDIQLYYQTLLIGRKELPYAPDRRMGVEMTLLRALAFHPRMPLPEPEVPRQ
notes: γ subunit of the E. coli clamp loader, truncated form, residues 1-373; Stands for the single γ subunits within the γ-complex; also called γ protein; B, C and D subunits; source: E. coli BLR21(DE3), purified (HisTrap, Prescission Protease, HisTrap flowthrough); not shown: His6, N-terminal, cleaved
Question: Does B1 bind [1]?
Answer: Result: binds

B2: γ-K141A (domain or fragment, E. coli, UniProt P06710 1-373, looked up)
chain: B1 chain with K141A
notes: γ subunit of the E. coli clamp loader with K141A; insert bought from Twist Bioscience; the range 1-373 is stated for the γ subunit in general; The limits 1-373 are not repeated for the mutant itself; source: E. coli BLR21(DE3), purified (Nickel NTA agarose, Prescission Protease, HisTrap); not shown: His6, N-terminal, cleaved
Question: Does B2 bind [2]?
Answer: Result: binds
